The text below walks through data of article PMC4555227, “GABPα Binding to Overlapping ETS and CRE DNA Motifs Is Enhanced by CREB1: Custom DNA Microarrays”.

One data set deals with T1, GABPα-GST (ETS domain) (UniProt Q00422 320-400).
T1 sequence: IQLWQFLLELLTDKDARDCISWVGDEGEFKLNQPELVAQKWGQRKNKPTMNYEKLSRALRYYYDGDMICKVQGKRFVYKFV
Nature of the data set: PBM; GABPα-GST alone; PBM as in Badis et al. 2009 (buffer, salt, pH, temperature not stated); IVT proteins from 2.5-100 ng plasmid; Alexa Fluor 647 anti-GST detection. The settings on record: protein: ivt; tags: GST; blunt.

Data set [1] concerns the target T2, GABPα-GST (ETS domain);CREB1 B-ZIP domain (mouse?;mouse, UniProt Q00422;Q01147 320-400;269-327, |).
T2 sequence 1: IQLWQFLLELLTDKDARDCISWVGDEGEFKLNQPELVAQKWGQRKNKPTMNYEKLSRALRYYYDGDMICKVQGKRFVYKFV
T2 sequence 2: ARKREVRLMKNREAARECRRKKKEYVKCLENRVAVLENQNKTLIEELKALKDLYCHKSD
Nature of the data set: PBM; 8 ng:8 ng plasmid; PBM as in Badis et al. 2009 (buffer, salt, pH, temperature not stated); IVT proteins from 2.5-100 ng plasmid; Alexa Fluor 647 anti-GST detection. To be noted: protein: ivt;ivt; tags: GST;none; copies: 1;2; blunt.

Data set [2] deals with T2, GABPα-GST (ETS domain);CREB1 B-ZIP …. Described as above. The settings on record: protein: ivt;ivt; tags: GST;none; copies: 1;2; blunt. The source holds these as a separate data set.

B1: ETS-CRE GC motif probe (dsDNA)
DNA 1: GTCCTCAAGAGCGGAAGTGACGTCACGACTCAGGTGGGACACACTTTAACACATGGAGAG
DNA 2: CTCTCCATGTGTTAAAGTGTGTCCCACCTGAGTCGTGACGTCACTTCCGCTCTTGAGGAC
Regarding B1, the binding signal with GABPα-GST (ETS domain) worked out at 4 fold weaker than N1.

B2: CC SNP TCGGAAGT (dsDNA)
DNA 1: GTCCTCAAGATCGGAAGTGACGTCACGACTCAGGTGGGACACACTTTAACACATGGAGAG
DNA 2: CTCTCCATGTGTTAAAGTGTGTCCCACCTGAGTCGTGACGTCACTTCCGATCTTGAGGAC
On to B2, for which the binding signal in data set [1] is < 20 fold increase by CREB1 (up to).

B3: GC SNP GGGGAAGT (dsDNA)
DNA 1: GTCCTCAAGAGGGGAAGTGACGTCACGACTCAGGTGGGACACACTTTAACACATGGAGAG
DNA 2: CTCTCCATGTGTTAAAGTGTGTCCCACCTGAGTCGTGACGTCACTTCCCCTCTTGAGGAC
Turning to B3, in data set [2], the binding signal is around 8 fold increase by CREB1.

B4: CC SNP CCGGAAA(T) (dsDNA)
DNA 1: GTCCTCAAGACCGGAAATGACGTCACGACTCAGGTGGGACACACTTTAACACATGGAGAG
DNA 2: CTCTCCATGTGTTAAAGTGTGTCCCACCTGAGTCGTGACGTCATTTCCGGTCTTGAGGAC
In the case of B4, the binding signal in data set [1] was 2 fold increase by CREB1.

B5: GC SNP GCGGAAA(T) (dsDNA)
DNA 1: GTCCTCAAGAGCGGAAATGACGTCACGACTCAGGTGGGACACACTTTAACACATGGAGAG
DNA 2: CTCTCCATGTGTTAAAGTGTGTCCCACCTGAGTCGTGACGTCATTTCCGCTCTTGAGGAC
B5: the binding signal in data set [2] turned out to be 16 fold increase by CREB1.

B6: CC SNP CCGGAACT (dsDNA)
DNA 1: GTCCTCAAGACCGGAACTGACGTCACGACTCAGGTGGGACACACTTTAACACATGGAGAG
DNA 2: CTCTCCATGTGTTAAAGTGTGTCCCACCTGAGTCGTGACGTCAGTTCCGGTCTTGAGGAC
For B6, the binding signal in data set [1] came out at 20 fold increase by CREB1.

B7: CC SNP CGGGAAGT (dsDNA)
DNA 1: GTCCTCAAGACGGGAAGTGACGTCACGACTCAGGTGGGACACACTTTAACACATGGAGAG
DNA 2: CTCTCCATGTGTTAAAGTGTGTCCCACCTGAGTCGTGACGTCACTTCCCGTCTTGAGGAC
For B7, the binding signal in data set [1] was around 16 fold increase by CREB1.

B8: GC SNP GCGGAACT (dsDNA)
DNA 1: GTCCTCAAGAGCGGAACTGACGTCACGACTCAGGTGGGACACACTTTAACACATGGAGAG
DNA 2: CTCTCCATGTGTTAAAGTGTGTCCCACCTGAGTCGTGACGTCAGTTCCGCTCTTGAGGAC
Consider B8, for which, in data set [2], the binding signal turned out to be 8 fold increase by CREB1.

B9: CC SNP CCGGACGT (dsDNA)
DNA 1: GTCCTCAAGACCGGACGTGACGTCACGACTCAGGTGGGACACACTTTAACACATGGAGAG
DNA 2: CTCTCCATGTGTTAAAGTGTGTCCCACCTGAGTCGTGACGTCACGTCCGGTCTTGAGGAC
Turning to B9, in data set [1], the binding signal is < 20 fold increase by CREB1 (up to; abstract up to 23, most enhanced SNP).
